Results reported in publication PMC6469936.

Target: Kuenenia stuttgartiensis hydrazine dehydrogenase (Kuenenia stuttgartiensis) (UniProt Q1PW30)
Assay: crystal structure

Chain of UniProt Q1PW30 (Q1PW30 33-582): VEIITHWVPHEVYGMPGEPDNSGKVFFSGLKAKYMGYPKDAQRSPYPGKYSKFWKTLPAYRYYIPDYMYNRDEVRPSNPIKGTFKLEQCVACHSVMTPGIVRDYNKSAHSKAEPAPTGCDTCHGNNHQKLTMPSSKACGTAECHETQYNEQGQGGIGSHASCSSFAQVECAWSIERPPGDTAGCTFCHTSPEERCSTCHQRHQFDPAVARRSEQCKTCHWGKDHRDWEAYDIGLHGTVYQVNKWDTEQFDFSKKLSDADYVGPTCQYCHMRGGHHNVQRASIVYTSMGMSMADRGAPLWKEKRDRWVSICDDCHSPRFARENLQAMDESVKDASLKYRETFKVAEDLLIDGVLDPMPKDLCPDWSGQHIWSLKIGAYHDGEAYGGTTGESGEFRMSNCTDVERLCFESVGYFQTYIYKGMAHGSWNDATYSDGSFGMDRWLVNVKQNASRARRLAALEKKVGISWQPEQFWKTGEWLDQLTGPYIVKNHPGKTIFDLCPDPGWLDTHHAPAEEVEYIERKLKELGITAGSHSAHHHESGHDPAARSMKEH

Kustc1130, endogenous, co-purified with K. stuttgartiensis HDH (from UniProt Q1PW30 33-582) (natural protein)
stoichiometry N (copies per assembly of 24 HDH monomers): 12
